Source: publication PMC9271825

B1: Human Claudin-7 (Cldn7), wild type, His-tagged [human] / itself (parent)
chain: MANSGLQLLGFSMALLGWVGLVACTAIPQWQMSSYAGDNIITAQAMYKGLWMDCVTQSTGMMSCKMYDSVLALSAALQATRALMVVSLVLGFLAMFVATMGMKCTRCGGDDKVKKARIAMGGGIIFIVAGLAALVACSWYGHQIVTDFYNPLIPTNIKYEFGPAIFIGWAGSALVILGGALLSCSCPGNESKAGYRVPRSYPKSNSSKEYV

Variants of: B1
Test: solubilization/centrifugation assay with SDS-PAGE densitometry
Settings: p-buffer, n = 9, read off a plot

| Variant | screen value (0 mM NaCl) [a.u.] | screen value (300 mM NaCl) [a.u.] |
| --- | --- | --- |
| chain 1 E160A | 0.38 | 0.87 |
| chain 1 F148A | 0.38 | 0.87 |
| chain 1 F161A | 0.39 | 0.85 |
| chain 1 R81A | 0.7 | 0.91 |

Continued, values first:

| screen value (0 mM NaCl) [a.u.] | screen value (300 mM NaCl) [a.u.] | Variant |
| --- | --- | --- |
| 0.67 | 0.96 | chain 1 Y149A |
| 0.39 | 0.8 | chain 1 V70A |
| 0.7 | 0.82 | chain 1 R81A Y149A |
| 0.87 | 0.86 | chain 1 V70A R81A F148A Y149A E160A F161A |
